Values of other authors as cited in patent publication US12077586B2, “Bispecific antibodies for use in the treatment of hematological malignancies” (LAVA THERAPEUTICS N.V., priority 2018, dated 2024).
Changes are numbered by the printed parent chain.

How the values were obtained:
Vδ2 chain = molecular target: T1, Vδ2 chain (Homo sapiens, UniProt A0JD36); conditions: Mean Fluorescence Index class; γδ T-cells expressing Vδ2 chain paired with non Vγ9 chain; cited from earlier work
T1 construct: host or cells: γδ T-cells expressing a Vδ2 chain paired with a non-Vγ9 chain
T1 sequence (A0JD36 with tags, fused parts or gaps): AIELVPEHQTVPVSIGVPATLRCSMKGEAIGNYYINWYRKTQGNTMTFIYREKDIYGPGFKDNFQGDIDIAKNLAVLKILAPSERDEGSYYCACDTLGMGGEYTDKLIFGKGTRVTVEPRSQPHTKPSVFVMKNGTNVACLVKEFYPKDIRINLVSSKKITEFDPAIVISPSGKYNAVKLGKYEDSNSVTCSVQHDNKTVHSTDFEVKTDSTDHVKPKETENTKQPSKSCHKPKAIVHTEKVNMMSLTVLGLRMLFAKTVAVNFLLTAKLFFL
T1 sequence (P07766 23-207 partner): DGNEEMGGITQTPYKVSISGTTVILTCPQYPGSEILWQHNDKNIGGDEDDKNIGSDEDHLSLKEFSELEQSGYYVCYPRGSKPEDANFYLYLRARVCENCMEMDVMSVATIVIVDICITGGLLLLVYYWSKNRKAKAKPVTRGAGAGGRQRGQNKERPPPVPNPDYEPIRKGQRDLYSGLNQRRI
T1 sequence (P09693 23-182 partner): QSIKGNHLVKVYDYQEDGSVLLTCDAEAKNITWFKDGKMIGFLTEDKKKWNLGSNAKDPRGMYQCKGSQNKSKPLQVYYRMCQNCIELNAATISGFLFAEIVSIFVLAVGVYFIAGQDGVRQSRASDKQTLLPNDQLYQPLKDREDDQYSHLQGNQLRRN
T1 sequence (P04234 22-171 partner): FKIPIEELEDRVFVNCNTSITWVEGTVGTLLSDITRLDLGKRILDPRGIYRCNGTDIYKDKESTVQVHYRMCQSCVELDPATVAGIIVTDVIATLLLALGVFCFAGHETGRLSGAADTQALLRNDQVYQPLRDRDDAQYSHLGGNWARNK
T1 sequence (P20963 22-164 partner): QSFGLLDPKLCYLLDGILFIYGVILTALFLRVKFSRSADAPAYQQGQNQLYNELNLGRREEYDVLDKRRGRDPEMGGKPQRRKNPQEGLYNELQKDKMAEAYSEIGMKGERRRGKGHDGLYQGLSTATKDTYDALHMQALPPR

Vγ9 chain = molecular target: T2, Vγ9 chain (Homo sapiens, UniProt Q99603, T7A); conditions: Mean Fluorescence Index class; γδ T-cells expressing Vγ9 chain paired with non Vδ2 chain; cited from earlier work
T2 construct: host or cells: γδ T-cells expressing a Vγ9 chain paired with a non-Vδ2 chain
T2 sequence (Q99603 with tags, fused parts or gaps T7A limits assumed): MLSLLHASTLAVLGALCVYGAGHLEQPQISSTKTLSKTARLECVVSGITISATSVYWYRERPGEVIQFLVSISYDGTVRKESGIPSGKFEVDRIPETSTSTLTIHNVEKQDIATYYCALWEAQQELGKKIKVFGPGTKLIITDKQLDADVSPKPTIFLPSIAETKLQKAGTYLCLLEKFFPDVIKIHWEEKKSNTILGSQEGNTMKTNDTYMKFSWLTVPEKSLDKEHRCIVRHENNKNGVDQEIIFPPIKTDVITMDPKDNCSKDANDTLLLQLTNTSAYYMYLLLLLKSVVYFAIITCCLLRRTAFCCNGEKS
T2 sequence (P07766 23-207 partner): as the sequence (P07766 23-207 partner) above
T2 sequence (P09693 23-182 partner): as the sequence (P09693 23-182 partner) above
T2 sequence (P04234 22-171 partner): as the sequence (P04234 22-171 partner) above
T2 sequence (P20963 22-164 partner): as the sequence (P20963 22-164 partner) above

complete Vγ9Vδ2 TCR = molecular target: T3, complete Vγ9Vδ2 TCR (Homo sapiens, UniProt A0JD36+Q99603, T7A); conditions: Mean Fluorescence Index class; cited from earlier work
T3 construct: host or cells: γδ T-cells expressing the complete Vγ9Vδ2 TCR
T3 sequence (Q99603 with tags, fused parts or gaps T7A limits assumed): as the sequence (Q99603 with tags, fused parts or gaps T7A limits assumed) above
T3 sequence (A0JD36 with tags, fused parts or gaps, stated change not applied): as the sequence (A0JD36 with tags, fused parts or gaps) above
T3 sequence (P07766 23-207 partner): as the sequence (P07766 23-207 partner) above
T3 sequence (P09693 23-182 partner): as the sequence (P09693 23-182 partner) above
T3 sequence (P04234 22-171 partner): as the sequence (P04234 22-171 partner) above
T3 sequence (P20963 22-164 partner): as the sequence (P20963 22-164 partner) above

[1] = test system: γδ T-cells not expressing any of the Vγ9Vδ2 TCR chains; conditions: Mean Fluorescence Index class; cells not expressing any Vγ9Vδ2 TCR chain; cited from earlier work

B1: 5G3: Vγ9Vδ2-TCR binding VHH, SEQ ID NO: 141 (protein)
VHH: EVQLVESGGGLVQAGGSLRLSCAASGRTFSSYAMGWFRQAPGKEREFVAAVSWSGGSTYYADSVKGRFTISRDNARNTVYLQMNSLNPEDTAVYYCAASQDCSGPGCYTNEYDSWGQGTQVTVSS
modifications: antibody sequence
Binding, Vδ2+ (Vδ2 chain): − (“−” indicates a Mean Fluorescence Index (MFI) below 1.5)
Binding, Vγ9+ (Vγ9 chain): ++ (“++” indicates an MFI above 20)
Binding, Vγ9Vδ2+ (complete Vγ9Vδ2 TCR): ++ (“++” indicates an MFI above 20)
Binding, Vγ9Vδ2− [1]: − (“−” indicates a Mean Fluorescence Index (MFI) below 1.5)

B2: 6E3: Vγ9Vδ2-TCR binding VHH, SEQ ID NO: 144 (protein)
VHH: EVQLVESGGGLVQAGGSLRLSCAASGRPFSNYGMGWFRQAPGKKREFVAGISWSGGSTDYADSVKGRLTISRDNAKNTVYLQMNSLKPEDTAVYYCAAVFSGAETAYYPSDDYDYWGQGTQVTVSS
modifications: antibody sequence
Binding, Vδ2+ (Vδ2 chain): ++ (“++” indicates an MFI above 20)
Binding, Vγ9+ (Vγ9 chain): − (“−” indicates a Mean Fluorescence Index (MFI) below 1.5)
Binding, Vγ9Vδ2+ (complete Vγ9Vδ2 TCR): ++ (“++” indicates an MFI above 20)
Binding, Vγ9Vδ2− [1]: − (“−” indicates a Mean Fluorescence Index (MFI) below 1.5)

B3: 6G3: Vγ9Vδ2-TCR binding VHH, SEQ ID NO: 148 (protein)
VHH: B2 VHH with S30N, K44E, D59Y, L68F, Y107Q, D111Y
modifications: antibody sequence
Binding, Vδ2+ (Vδ2 chain): ++ (“++” indicates an MFI above 20)
Binding, Vγ9+ (Vγ9 chain): − (“−” indicates a Mean Fluorescence Index (MFI) below 1.5)
Binding, Vγ9Vδ2+ (complete Vγ9Vδ2 TCR): ++ (“++” indicates an MFI above 20)
Binding, Vγ9Vδ2− [1]: − (“−” indicates a Mean Fluorescence Index (MFI) below 1.5)

B4: 6H3: Vγ9Vδ2-TCR binding VHH, SEQ ID NO: 147 (protein)
VHH: B2 VHH with A24V, K44E, S52T, D59H, S63L, L68F, Y80H, D111T, D112E
modifications: antibody sequence
Binding, Vδ2+ (Vδ2 chain): ++ (“++” indicates an MFI above 20)
Binding, Vγ9+ (Vγ9 chain): +/− (“+/−” indicates an MFI of between 1.5 and 4.5)
Binding, Vγ9Vδ2+ (complete Vγ9Vδ2 TCR): ++ (“++” indicates an MFI above 20)
Binding, Vγ9Vδ2− [1]: − (“−” indicates a Mean Fluorescence Index (MFI) below 1.5)

B5: 6C1: Vγ9Vδ2-TCR binding VHH, SEQ ID NO: 146 (protein)
VHH: B2 VHH with F47S, L68F
modifications: antibody sequence
Binding, Vδ2+ (Vδ2 chain): ++ (“++” indicates an MFI above 20)
Binding, Vγ9+ (Vγ9 chain): − (“−” indicates a Mean Fluorescence Index (MFI) below 1.5)
Binding, Vγ9Vδ2+ (complete Vγ9Vδ2 TCR): ++ (“++” indicates an MFI above 20)
Binding, Vγ9Vδ2− [1]: − (“−” indicates a Mean Fluorescence Index (MFI) below 1.5)

B6: 5B11: Vγ9Vδ2-TCR binding VHH, SEQ ID NO: 155 (protein)
VHH: EVQLVESGGGLVQAGGSLRLSCAASGRTSSTFSMAWFRQAPRKEREFVAAINWSGGSTRYADSVSDRFAISRDNAKNTVYLQMNNLKPEDTAVYYCAARRGGIYYSTQNDYDYWGQGTQVTVSS
modifications: antibody sequence
Binding, Vδ2+ (Vδ2 chain): − (“−” indicates a Mean Fluorescence Index (MFI) below 1.5)
Binding, Vγ9+ (Vγ9 chain): − (“−” indicates a Mean Fluorescence Index (MFI) below 1.5)
Binding, Vγ9Vδ2+ (complete Vγ9Vδ2 TCR): + (“+” indicates an MFI of between 4.6 and 20)
Binding, Vγ9Vδ2− [1]: − (“−” indicates a Mean Fluorescence Index (MFI) below 1.5)

B7: 5E3: Vγ9Vδ2-TCR binding VHH, SEQ ID NO: 139 (protein)
VHH: EVQLVESGGGLVQAGGSLRLSCTASGRTFSSYAMGWFRQAPGKEREFVAAISWSGGTTYYADSVKGRFTISRDNAKNTVSLQMNSLKPEDTAVYFCAASLDCSGPGCHTAEYDYWGQGTQVTVSS
modifications: antibody sequence
Binding, Vδ2+ (Vδ2 chain): − (“−” indicates a Mean Fluorescence Index (MFI) below 1.5)
Binding, Vγ9+ (Vγ9 chain): ++ (“++” indicates an MFI above 20)
Binding, Vγ9Vδ2+ (complete Vγ9Vδ2 TCR): ++ (“++” indicates an MFI above 20)
Binding, Vγ9Vδ2− [1]: − (“−” indicates a Mean Fluorescence Index (MFI) below 1.5)

B8: 6H1: Vγ9Vδ2-TCR binding VHH, SEQ ID NO: 140 (protein)
VHH: EVQLVESGGGLVQAGGSLRLSCAATGRTFSEYAMGWFRQAPGKEREFAAAISWTGSKTYYADSVKGRFTISRDNAKNTVYLQMNSLKPEDTAVYYCAASSDCSGPGCHTEEYDYWGQGTQVTVSS
modifications: antibody sequence
Binding, Vδ2+ (Vδ2 chain): − (“−” indicates a Mean Fluorescence Index (MFI) below 1.5)
Binding, Vγ9+ (Vγ9 chain): ++ (“++” indicates an MFI above 20)
Binding, Vγ9Vδ2+ (complete Vγ9Vδ2 TCR): ++ (“++” indicates an MFI above 20)
Binding, Vγ9Vδ2− [1]: − (“−” indicates a Mean Fluorescence Index (MFI) below 1.5)

B9: 6E4: Vγ9Vδ2-TCR binding VHH, SEQ ID NO: 152 (protein)
VHH: EVQLVESGGGLVQAGGSLRLSCAASGFTFDDYCIAWFRQAPGKEREPVSCITTSDGSTYYADSVKGRFTISSDNAKNTVYLQMNRLKPEDTAVYYCAAYFGYGCYGGAQDYRAMDYWGKGTLVTVSS
modifications: antibody sequence
Binding, Vδ2+ (Vδ2 chain): ++ (“++” indicates an MFI above 20)
Binding, Vγ9+ (Vγ9 chain): − (“−” indicates a Mean Fluorescence Index (MFI) below 1.5)
Binding, Vγ9Vδ2+ (complete Vγ9Vδ2 TCR): ++ (“++” indicates an MFI above 20)
Binding, Vγ9Vδ2− [1]: − (“−” indicates a Mean Fluorescence Index (MFI) below 1.5)

B10: 5C1: Vγ9Vδ2-TCR binding VHH, SEQ ID NO: 142 (protein)
VHH: EVQLVESGGGLVQPGGSLRLSCAASGSIFSNYAMAWFRQAPEKERDFLAAVSWSGGRTYYADSVKGRFTISRDNAKNTVNLQMNSLKPEDTAVYYCAASLSCSGPGCSLEEYDYWGQGTQVTVSS
modifications: antibody sequence
Binding, Vδ2+ (Vδ2 chain): +/− (“+/−” indicates an MFI of between 1.5 and 4.5)
Binding, Vγ9+ (Vγ9 chain): ++ (“++” indicates an MFI above 20)
Binding, Vγ9Vδ2+ (complete Vγ9Vδ2 TCR): ++ (“++” indicates an MFI above 20)
Binding, Vγ9Vδ2− [1]: − (“−” indicates a Mean Fluorescence Index (MFI) below 1.5)

B11: 6C4: Vγ9Vδ2-TCR binding VHH, SEQ ID NO: 156 (protein)
VHH: EVQLVESGGGLVQAGGSLRLSCAVSVRTFSDYRMGWFRQAPGKEREFVSTISWSGGLTYYADSVKGRFTISRDNSKNTLYLQMNSLKPEDTAVYYCAAGGGYAGGTYYHPEEWGQGTQVTVSS
modifications: antibody sequence
Binding, Vδ2+ (Vδ2 chain): +/− (“+/−” indicates an MFI of between 1.5 and 4.5)
Binding, Vγ9+ (Vγ9 chain): ++ (“++” indicates an MFI above 20)
Binding, Vγ9Vδ2+ (complete Vγ9Vδ2 TCR): ++ (“++” indicates an MFI above 20)
Binding, Vγ9Vδ2− [1]: − (“−” indicates a Mean Fluorescence Index (MFI) below 1.5)

B12: 6A1: Vγ9Vδ2-TCR binding VHH, SEQ ID NO: 151 (protein)
VHH: EVQLVESGGGLVQAGGSLRLSCAASGRTFSNYAMGWFRQAPGKEREFVATISWSGGSTYYADSVKGRFTISRDNAKNTVYLQMNSLKPEDTAVYYCAAAFSGSDYANTKKEVEYDYWGQGTQVTVSS
modifications: antibody sequence
Binding, Vδ2+ (Vδ2 chain): ++ (“++” indicates an MFI above 20)
Binding, Vγ9+ (Vγ9 chain): − (“−” indicates a Mean Fluorescence Index (MFI) below 1.5)
Binding, Vγ9Vδ2+ (complete Vγ9Vδ2 TCR): ++ (“++” indicates an MFI above 20)
Binding, Vγ9Vδ2− [1]: − (“−” indicates a Mean Fluorescence Index (MFI) below 1.5)

B13: 5C7: Vγ9Vδ2-TCR binding VHH, SEQ ID NO: 153 (protein)
VHH: EVQLVESGGGLVQAGDSLRLSCAASGRTFSRYTMGWFRQAPGKEREFVAAISWSGGRTNFAGSVKGRFTISRDNAKNTVYLQMNSLKPEDTAVYYCAADWLPVPGRESYDYWGQGTQVTVSS
modifications: antibody sequence
Binding, Vδ2+ (Vδ2 chain): +/− (“+/−” indicates an MFI of between 1.5 and 4.5)
Binding, Vγ9+ (Vγ9 chain): − (“−” indicates a Mean Fluorescence Index (MFI) below 1.5)
Binding, Vγ9Vδ2+ (complete Vγ9Vδ2 TCR): +/− (“+/−” indicates an MFI of between 1.5 and 4.5)
Binding, Vγ9Vδ2− [1]: − (“−” indicates a Mean Fluorescence Index (MFI) below 1.5)

B14: 5D7: Vγ9Vδ2-TCR binding VHH, SEQ ID NO: 154 (protein)
VHH: EVQLVESGGGLVQAGGSLRLSCIASGRTFSNYAMGWFRQAPGKEREFVAAISWSGGMTDHADSVKGRFTISRDNAKNTVYLQMNSLKPEDTAVYYCAAAFAGDIPYGSSWYGDPTTYDYWGQGTQVTVSS
modifications: antibody sequence
Binding, Vδ2+ (Vδ2 chain): ++ (“++” indicates an MFI above 20)
Binding, Vγ9+ (Vγ9 chain): − (“−” indicates a Mean Fluorescence Index (MFI) below 1.5)
Binding, Vγ9Vδ2+ (complete Vγ9Vδ2 TCR): ++ (“++” indicates an MFI above 20)
Binding, Vγ9Vδ2− [1]: − (“−” indicates a Mean Fluorescence Index (MFI) below 1.5)

B15: 5F5: Vγ9Vδ2-TCR binding VHH, SEQ ID NO: 150 (protein)
VHH: EVQLVESGGGLVQAGGSLRLSCAASGRTFSNYAMGWFRQAPGKEREFVAAISWSGGSTYYADSVKGRFTISRDNAKNTVYLQMNSLKPEDTAVYYCAAMFSGSESQLVVVITNLYEYDYWGQGTQVTVSS
modifications: antibody sequence
Binding, Vδ2+ (Vδ2 chain): ++ (“++” indicates an MFI above 20)
Binding, Vγ9+ (Vγ9 chain): − (“−” indicates a Mean Fluorescence Index (MFI) below 1.5)
Binding, Vγ9Vδ2+ (complete Vγ9Vδ2 TCR): ++ (“++” indicates an MFI above 20)
Binding, Vγ9Vδ2− [1]: − (“−” indicates a Mean Fluorescence Index (MFI) below 1.5)
